To fix the notation:
B1: HDV Ribozyme (parent)
chain: GGCCGGCAUGGUCCCAGCCUCCUCGCUGGCGCCGGCUGGGCAACAUUCCGAGGGGACCGUCCCCUCGGUAAUGGCGAAUGGGACCCA

The data set covers variants of B1. As to the kind of experiment: self-cleavage, relative activity (ratio to wild type); higher = more cleavage; co-transcriptional.
In the case of C24A U27G, the self-cleavage worked out at 0.415.
As to C24U A45U, the self-cleavage was determined as 0.489.
Under C24U A45C stands 0.26; under C24G C33A, 0.244; under C24G C33G, 0.0475.
Take C24A G40A: the self-cleavage was 0.809.
Turning to C24A G40C, the self-cleavage stood at 0.117.
Then C24G G73A, with 0.151.
Then C24G G73U, with 0.0841; and C24G A70C, with 0.0978; and C24G A70U, with 0.0627.
Then C24A C85G, with 0.69; and C24A C85U, with 0.594; and C24A G31A, with 0.0332.
On to C24A G31U, for which the self-cleavage worked out at 0.0519.
For the variant C24G G76C, the self-cleavage came to 0.219.
Under C24G A78C stands 0.0241; under C24G G74U, 0.0554; under C24G U46C, 0.106.
As for C24G U46G, the self-cleavage stood at 0.
Under C24G U46A stands 0.0326.
In the case of C24A G59U, the self-cleavage was determined as 0.783.
Then C24G G67A, with 0.119; and C24G G67C, with 0.026.
As for C24A G68C, the self-cleavage was found to be 0.628.
Then C24A U72C, with 0.253; and C24A U72G, with 0.364; and C24A U79G, with 0.312.
With C24A U79C, the self-cleavage is 0.12.
With C24G G81U, the self-cleavage stood at 0.0707.
On to C24G C66U, for which the self-cleavage is 0.166.
Then C24G C66G, with 0.13; and C24A G55C, with 0.818.
With C24A G80C, the self-cleavage came out at 0.262.
Then C24A G80A, with 0.131; and C24G G31U, with 0.0604; and C24G G31A, with 0.0594.
For the variant C24G G28U, the self-cleavage came to 0.0594.
Then C24G G28A, with 0.148; and C24G G28C, with 0.214.
As to C24G C26U, the self-cleavage worked out at 0.514.
Regarding C24G C26G, the self-cleavage stood at 0.277.
Under C24A U46A stands 0.213; under C24G C84U, 0.12; under C24G G25U, 0.0773.
Then C24A U65A, with 0.735.
As for C24A U65G, the self-cleavage was 0.511.
C24G G59U: the self-cleavage is 0.147.
Consider C24G G59A, for which the self-cleavage was determined as 0.0955.
Turning to C24G G59C, the self-cleavage was found to be 0.0923.
For C24U A51G, the self-cleavage was 0.415.
Under C24G A71G stands 0.102.
Take C24G A71C: the self-cleavage was determined as 0.
C24G A71U: the self-cleavage stood at 0.106.
Regarding C24G C64G, the self-cleavage came to 0.131.
Then C24G C64U, with 0.0886; and C24G G52U, with 0.0852.
Then C24A C75A, with 0.219.
For the variant C24A G76U, the self-cleavage turned out to be 0.842.
As to C24A G76C, the self-cleavage was determined as 0.936.
Then C24A G76A, with 0.769.
For the variant C24G A51U, the self-cleavage was found to be 0.237.
Under C24G A51G stands 0.111; under C24G G80C, 0.271; under C24A G73U, 0.288.
Under C24A G73A stands 0.234.
Regarding C24A G73C, the self-cleavage is 0.211.
Then C24A G35U, with 0.298; and C24G G68U, with 0.0191; and C24G G68C, with 0.126.
Under C24A G29A stands 0.106.
Then C24G U60G, with 0.0755; and C24A G50U, with 0.641.
On to C24A G50A, for which the self-cleavage amounted to 0.688.
Then C24A C66U, with 0.69; and C24G C30A, with 0.0898; and C24G C30U, with 0.0712.
For the variant C24A C86A, the self-cleavage came out at 0.607.
In the case of C24A C86G, the self-cleavage is 0.724.
Then C24G A56U, with 0.0831; and C24G A77G, with 0.298.
Then C24G A77C, with 0.0386; and C24G A77U, with 0.111.
On to C24G A43C, for which the self-cleavage worked out at 0.0811.
Under C24G A43G stands 0.0354.
Then C24G A43U, with 0.0237.
Consider C24G G82A, for which the self-cleavage came to 0.
Under C24G G82C stands 0.
Then C24G G38A, with 0.0631.
Regarding C24G G38C, the self-cleavage was found to be 0.0791.
Regarding C24A U37G, the self-cleavage is 0.142.
Under C24A U37C stands 0.974; under C24A U37A, 0.145; under C24A C84A, 0.787.
As for C24A G82C, the self-cleavage turned out to be 0.249.
Take C24A G82U: the self-cleavage was determined as 0.328.
Take C24G U47A: the self-cleavage came to 0.106.
Regarding C24G U47G, the self-cleavage came to 0.0978.
As for C24G U37G, the self-cleavage was found to be 0.
Under C24G U37A stands 0.0674.
Under C24G C57A stands 0.0432.
On to C24G G55U, for which the self-cleavage was 0.16.
Then C24G G55C, with 0.0656; and C24G C49G, with 0.0314; and C24G C49A, with 0.0804.
C24G G34U: the self-cleavage amounted to 0.0268.
C24G G34A: the self-cleavage was 0.0332.
Then C24G G34C, with 0.0437; and C24G A87C, with 0.128.
C24G A87G: the self-cleavage turned out to be 0.137.
For the variant C24G A87U, the self-cleavage was found to be 0.0902.
Then C24G G53U, with 0.117.
Then C24G C62G, with 0.0415; and C24G C62U, with 0.142.
C24G G29C: the self-cleavage stood at 0.
Then C24G G29U, with 0.0692; and C24G G29A, with 0.188.
Turning to C24G U72C, the self-cleavage is 0.111.
Under C24G U72G stands 0; under C24G U72A, 0.0437.
Then C24A G38A, with 0.208.
For the variant C24A G38C, the self-cleavage is 0.199.
Take C24U A42G: the self-cleavage stood at 0.0923.
Under C24A U69A stands 0.635; under C24G U65G, 0.233.
C24G U65A: the self-cleavage came to 0.208.
Under C24G U27C stands 0.0791; under C24G U27G, 0.0536; under C24A G25A, 0.102.
With C24G U79A, the self-cleavage is 0.0898.
Under C24G G50U stands 0.149; under C24G G50C, 0.0755.
Under C24A G52C stands 0.803; under C24A G52A, 1.1; under C24G A45G, 0.222.
As to C24G A45C, the self-cleavage is 0.0302.
Then C24G C41A, with 0.113.
As to C24G C75U, the self-cleavage was found to be 0.0554.
Then C24G C75A, with 0.0277.
As to C24G C75G, the self-cleavage is 0.13.
Under C24A G54U stands 0.736; under C24G C36U, 0.0627; under C24A G39A, 0.0779.
Consider C24A G39C, for which the self-cleavage amounted to 0.0692.
For the variant C24G C61U, the self-cleavage worked out at 0.166.
Regarding C24U A43C, the self-cleavage turned out to be 0.0739.
Then C24G C32G, with 0.0504; and C24G C32U, with 0.0773; and C24G C32A, with 0.
Turning to C24A G67U, the self-cleavage was 0.831.
Under C24A G67A stands 0.802.
With C24G G40A, the self-cleavage is 0.112.
Then C24G G40C, with 0.0222; and C24G G39U, with 0.0314; and C24G C48A, with 0.0519.
Then C24G C48U, with 0.14.
Then C24G C86A, with 0.106; and C24G C86G, with 0.112.
Turning to C24G C58G, the self-cleavage was 0.108.
Then C24G C58A, with 0.121; and C24G C58U, with 0.117.
Under C24G A83C stands 0.0923.
Then C24G A83U, with 0.141; and C24A G74A, with 0.12; and C24A G74U, with 0.16.
In the case of C24A U60C, the self-cleavage is 0.702.
Then C24A U60G, with 0.678.

The record behind these values is the RNAGym collection of RNA variant scans (doi:10.7554/elife.80360).
